# Test results reported in IntAct's records for PubMed 22632832.
# B1: Speckle-type POZ protein (Homo sapiens), O43791 (parent)
# chain: MSRVPSPPPPAEMSSGPVAESWCYTQIKVVKFSYMWTINNFSFCREEMGEVIKSSTFSSGANDKLKWCLRVNPKGLDEESKDYLSLYLLLVSCPKSEVRAKFKFSILNAKGEETKAMESQRAYRFVQGKDWGFKKFIRRDFLLDEANGLLPDDKLTLFCEVSVVQDSVNISGQNTMNMVKVPECRLADELGGLWENSRFTDCCLCVAGQEFQAHKAILAARSPVFSAMFEHEMEESKKNRVEINDVEPEVFKEMMCFIYTGKAPNLDKMADDLLAAADKYALERLKVMCEDALCSNLSVENAAEILILADLHSADQLKTQAVDFINYHASDVLETSGWKSMVVSHPHLVAEAYRSLASAQCPFLGPPRKRLKQS
# Variants of: B1
# Details: with cul3_human CUL3, Q13618
row,effect of a mutation on the interaction,Variant
1,disrupting interaction strength,M233E
